B1: C9orf9 (parent)
chain: TKHKCRQLTKASLKPRGCSKPPWR
B2: TMEM192 (parent)
chain: ILGKVILWILHLLLECYIQYHHSK

Variants of: B1
Assay: protein stability index of a GFP-peptide fusion (GPS, HEK-293T) (PSI 1-6); higher = more stable
Details: c terminus: a fixed tail appended
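Also: lentivirally expressed fusions sorted by FACS into six bins by GFP to DsRed ratio, PSI derived from sequencing read proportions per bin multiplied by bin number.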

Protein stability index: each site, then its substitutions
K20: S 2.9; F 2.32; N 2.95; H 2.76; L 2.3; E 2.41; M 1.76; R 3.14; I 2.37; A 2.41; W 1.94; C 2.23; P 3.42; Y 3.56; D 1.92; V 2.2; T 2.21; Q 2.45; G 2.64
W23: Y 3.86; T 3.93; C 2.89; M 3.05; A 3.89; Q 3.46; G 2.73; H 4.46; P 4.18; I 3.56; K 4.63; E 4.29; S 2.84; V 3.28; N 4.32; D 4.3; F 2.67; L 3.72; R 3.96
S19: D 2.77; F 2.33; Q 2.44; A 1.5; W 2.14; V 3.35; N 2.44; C 2.36; G 2.21; T 3.02; L 3.11; M 2.94; Y 1.99; I 2.08; K 2.37; P 1.92; E 2.02; R 3.63
C18: I 2.2; Q 3.32; T 3.11; N 3.22; Y 2.18; S 1.35; K 3.42; G 3.76; D 3.06; H 3.02; P 3.32; V 2.1; E 3.01; W 2.06; M 2.58; L 3.6; F 2.69; A 2.71; R 3.03
P21: D 2.93; K 2.76; L 3.59; C 2.36; I 3.18; M 2.64; W 2.28; S 2.4; F 2.79; G 2.81; T 2.56; N 2.9; E 2.79; Y 2.13; Q 3.48; V 3.09; H 3.41
G17: Y 2.52; W 1.92
R24: N 2.79; C 1.99; Q 2.2; F 2.14; E 3.22; K 3.63; D 3.17; H 2.82; I 1.43; T 2.73; V 2.14; M 2.57; P 2.53; Y 2.59; L 1.72; W 2.51; S 2.18; G 2.12; A 2.95
P22: W 1.89; N 2.32; E 2.98; K 3.03; G 3.09; I 2.02; Y 2.62; H 2.98; R 2.51; A 2.97; M 2.76; Q 2.99; F 1.73; T 3.03; C 1.83; S 3.14; D 2.38

Variants of: B2
Assay: as above
Details: c terminus: a fixed tail appended

Protein stability index: each site, then its substitutions
W8: V 3.11; N 3.71; F 3.29; R 2.25; A 2.92; Q 2.89; K 2.89; I 2.08; S 3.6; Y 2.98; H 3.31; L 2.26; T 3.65; D 2.44; E 2.47; P 2.6; M 3.22; G 2.02
L2: V 3.54; A 2.41; D 2.04; G 3.77; E 2.32; H 1.91; N 2.93; T 3.29; F 2.86; S 2.82; R 2.75; Y 2.77; W 2.18; P 2.74; Q 2.41; K 3.23
L7: P 1.85; Y 2.85; E 3.07; V 1.74; R 1.75; H 2.6; T 3.57; Q 3.32; M 1.54; F 2.7; I 2.24; C 2.19; D 2.86; N 2.51; G 4.45; K 2.36; W 3.41; S 3.17
K4: V 2.92; D 3.04; N 2.98; Y 2.87; W 2.93; P 1.73; F 3.11; T 2.8; L 3.75; R 1.83; M 3.11; A 2.97; G 3.12; I 2.81; S 2.9; E 2.46; H 4.67
H11: G 2.09; S 2.22; P 3.26; K 3.6; T 2.63; Q 2.29; I 3.89; W 2.94; M 4.49; V 3.77; F 3.18; R 3.16; C 3.27; Y 2.56; A 2.76; N 2.91
I6: R 2.74; C 2.94; E 2.55; K 3.39; Y 2.98; Q 3.64; P 2.73; M 2.24; L 3.74; D 3.23; S 3.76; H 3.07; W 2.72; V 3.41; N 2.86; A 1.4; T 3.07
V5: N 2.55; I 3.3; G 3.88; A 2.85; P 1.85; S 3.18; C 2.73; H 2.2; T 2.49; D 3.49; Y 4.62; K 2.08; M 3.23; E 3.81; Q 2.86; R 2.43; F 2.7; W 3.91
I9: M 2.58; Q 2.8; D 2.89; V 3.3; R 2.96; W 3.09; N 4.27; F 3.71; G 1.96; P 3.29; H 3.16; C 2.61; L 2.68; K 3.67; Y 2.94; T 4.05; E 4.08
L10: N 3.04; P 3.36; D 2.76; M 3.36; F 3.04; V 2.85; W 3.83; S 2.3; I 3.22; K 1.75; A 2.54; T 2.19; R 1.98; E 5.03; C 1.5
L12: D 3.31; V 2.88; N 3.52; G 3.98; H 2.19; T 3.88; P 3.07; A 3; Y 2.14; W 3.59; R 2.87; M 2.29; Q 4.15; S 3.61; K 2.69; F 2.47; E 3.21
G3: Y 3.82; R 3.69; T 3.14; L 2.76; P 3.89; F 2.9; S 1.95; C 3.41; N 2.87; K 3.66; M 2.76; D 3.06; I 2.58; W 2.58; E 2.62; H 2.67; Q 3.27; V 2.32
I1: L 3.4; M 3.36; F 2.81; D 2.93; S 3.41; G 3.43; V 3.68; P 2.56; E 3.42; R 2.92; W 2.22; K 1.79; Q 2.5; T 3.49; H 2.88; C 2.82; N 3.45
